Data on one protein can be found in PMC4321091, “Recombinant Cyclodextrinase from Thermococcus kodakarensis KOD1: Expression, Purification, and Enzymatic Characterization” (Archaea, 2015).

Substrate in the series: OC[C@H]1O[C@@H]2O[C@H]3[C@H](O)[C@@H](O)[C@@H](O[C@H]4[C@H](O)[C@@H](O)[C@@H](O[C@H]5[C@H](O)[C@@H](O)[C@@H](O[C@H]6[C@H](O)[C@@H](O)[C@@H](O[C@H]7[C@H](O)[C@@H](O)[C@@H](O[C@H]8[C@H](O)[C@@H](O)[C@@H](O[C@H]1[C@H](O)[C@H]2O)O[C@@H]8CO)O[C@@H]7CO)O[C@@H]6CO)O[C@@H]5CO)O[C@@H]4CO)O[C@@H]3CO
The series is described as follows: purified protein. It is filed as biochemical, Thermococcus kodakarensis. To be noted: 20 mM Tris-HCl pH 7.5, 65°C, 1-10 mg/mL β-CD.

B1: CDase-Tk (Tk1770) (Thermococcus kodakarensis KOD1) (protein)
chain: MYKVFGFEENFIHGRVARVEFSLPDAGRWDYAYLLGNFNAFNEGSFRMKHEDKRWIIEIKLPEGLWRYAFSAGGEFLLDPENPEKELYRRPSYKFEREVSLAKIAGNDMVFHRPALLYLYSFGDRTHVLLRSKKGKVDAAYLVTDDTHVKMRKKADGEVFEYYEAVLQETEKLRYSFEVFLKEGKSLTLGPFEAAPFRLDAPSWILDRVFYQIMPDRFAKGRDHEPPFLSWEYYGGDLWGIVEKIDHLEELGVNALYLTPIFESMTYHGYDITDYLRVAERLGGEEAFRELVKALKSRDIKLVLDGVFHHTSFFHPFFRDVVERGEESEYADFYRVKGFPVVSEEFIRVLKSDLPPMEKYQTLKKMGWNYESFFSVWVMPRLNHDSPKVREFVARVMNYWLEKGADGWRLDVAHGVPPGFWREVREGLPDDAYLFGEVMDDPRLYLFGVFHGVMNYPLYDLLLRFFAFGEIGATEFINGIELLSAHLGPAEYFTYNFLDNHDTERFIDLAGKERYLCALTFLMTYKGIPAIFYGDEIGLRGSGEGMSAGRTPMSWDEEKWDFQILRQTMKLIELRRSLKSLQVGSFRVIGAGEKWFVYERKAGSERVLVGINCSWNDVETPVPSNGSNEQIKIPAFSSIIRVKDSMNVHIGSDLQE
notes: pET28a EcoRI/XhoI, E. coli BL21(DE3), DEAE purified
As a reminder, the Km is the concentration of substrate that gives half-maximal velocity. The kcat is the maximal rate divided by the concentration of active sites. As to B1, the Km was determined as 3.13 ± 0.47 mg/mL and the kcat was found to be 34.6 s⁻¹.
